Measured values: the DeepSol protein solubility set

Test: soluble on expression in E. coli; label from the status in PepcDB or PDB records
For “ANFQYIITEKKGKNSSVGLIQLNRPKALNALCNGLIEELNQALETFEEDPAVGAIVLTGGEKAFAAGADIKEMQNRTFQDCYSGKFLSHWDHITRIKKPVIAAVNGYALGGGCELAMMCDIIYAGEKAQFGQPEILLGTIPGAGGTQRLTRAVGKSLAMEMVLTGDRISAQDAKQAGLVSKIFPVETLVEEAIQCAEKIANNSKIIVAMAKESVNAAFEMTLTEGNKLEKKLFYSTFATDDRREGMSAFVEKRKANFKDH”, the “soluble on expression in E. coli” value was “soluble”. In the case of “MARLNVKPTRMELSNLKNRLKTATRGHKLLKDKRDELMRRFVDLIRENNELRQTLEKELAANMKEFVLAKASENSLMVEELFAVPVHEVTLWIDIENIMSVNVPKFHVQSNTAREQEQGEFAYSYLSSNSEMDNTIQKTKELLEKLLRLAEVEKTCQLMADDIEKTRRRVNGLEYSIIPQLEETIHYIELKLEEAERASLVRIMKITSLEHHHHHH”, the “soluble on expression in E. coli” value is reported as “not soluble”. With “MGSDKIHHHHHHMTSDDLLPYGYIDAHHHVWAPDSHGDAIGYGWLRDIGAMKPFGDPTPIQRDYLMAEFLSEAPDAPRASVHVQTDGTLPDPVAETRFVQAQADATDHPVKIVGLADLGAEDLTGTLDRHAESRDFCGVRQIAARLDHRPDLTFAPQDYLADEQWVNGLKILEDRGLTFDLQIYPEQAEAALEALSATPALTVIIDHALCPYDPAKITQWQAAVALMAARDNTFIKLSGWGMYDAEWDLNGGVSVQPLVSHILERFGADRVMWGSNFPVEKLATRYETCRDVHLDMVPEDAHQDVFFNSAAKTYGLTLT” the “soluble on expression in E. coli” value was “not soluble”. In the case of “MGSDKIHHHHHHMRPIQRKRVPGLNAWEARWYHGTKWVRVSSANGKSRRARRFSLMVLGGWVMERAQHNLRFTELARARAYAQAHGLRQKAVCHIVRRGTELLVFDHVPDGGAGVQVVAGGLEAGETPEQAALREAGEETGQDGFQVVGFLGSAVWLNTEHAKRELRHFVHLTAPDDLPDTWQHCADGHLFSFRWEPLHSARVDWEMDAFLPELG”, the “soluble on expression in E. coli” value is reported as “not soluble”. For “DYVGGCLDFRPEEGIFRIARDMFTEPELFDLEMELIFEKNWIYACHESELARPHDFVTLRAGRQPLIVTRDGNGQLHALVNACQHRGATLVRVGKGNQSTFTCPFHAWCYKNDGRLVKVKAPGEYPEGFDKATRGLKKARIQSYRGFVFVSLDVAGEDDLVDFLGDARVFLDMLVAQSPSGELEVLPGTSTYTYEGNWKLQNENGLDGYHVSTVHYNYVATVQHRQQVEAERGGVAATLDYSKLGAGDAATDDGWFSFANGHSVLFSEMPNPAVRPGYASVMPRLVAEYGQARAEWMMHRLRNLNLYPSLFVIDQISSQLRIVRPLAWNRTEIVSQCIGVKGESDADRENRIRQFEDFFNVSGMGTPDDLVEFREAQRGFQARLERWSDISRGHGKWLEGATPNSQALGIAPLLTGTEITHEGLYVNQHAHWRRFLLDGLERLALRA”, the “soluble on expression in E. coli” value was “not soluble”. In the case of “MINMEKCLLEKYNSLLEFFKNKKVIVAYSGGVDSTLISKIASDATKTLAVTVDNGFFSENVIKKAEDCAKKYNIPQKTEKIDYLNEITSKNLENRCYNCKKRIAEELKKIKNELNYDIIVDGTIYDDIFEDRPGIKAFHEENIISPLSDLKFNKNDVFEISKYLKIDIPKKDTCMATRILSAPISKENMAKSNLAEEFIKSNFHIESYLRVRYIENIAIIELTKNESEKIFDNDSIERINTELKKIGFEKVVIDLNFK”, the “soluble on expression in E. coli” value is reported as “not soluble”. In the case of “MLPRTMAADEGHVPGRFDAVIVGGGHNGLVAAAYLARAGRSVLVLERLGNTGGAAVSTRPFAGVDARLSRYSYLVSLLPRKIVRDLGLDFRVRGRTVSSYTPAERHGRPTGLLVGGGERRTREAFGRLTGSAREYESWQRFYGMTGRVARQVFPTLTEPLPSRDELRRRVDDEDAWRVLFEEPIGAAIEENFTDDLVRGVVLTDALIGTFADAHDPSLRQNRCFLYHIIGGGTGAWDVPVGGMGALTDALAAAARDAGAVLATGHEAVRIETDGRSAEVTYRDADGEGTVSARHVLVNAAPQELARLTGDSPPVPAEGAQLKVNMLLKRLPALRDTAVDPREAFAGTFHIAEGYEQLAAAHAQAAAGSLPEAPPSEIYCHSLTDPTILGPDLVEQGYQTLTLFGLHTPARLFERDNEGVREELLKSTLAQLDAHLAEPLVDCLATDAEGRPCIEAKSPLDLERDLRLPGGNIFHRDLAFPYAQEGTGRWGVETAHANVLLCGAGAVRGGGVSGVPGHNAAMAALEDVGERALGLEHHHHHH”, the “soluble on expression in E. coli” value is reported as “not soluble”. For “MEPTGMMVAAPTASLPEAIGGERNWDYRYTWIRDTAYVIEALATIGYKREAVSFLYDMMDVISRENKIRTIYSIDNSDDFVERELDFEGYRGSRPVRIGNKAVDQLQIDQYGSIVRAIHAMEKAGGVVNSYLWDFVEEMMAKIEYLWKYPDSSIWEFRTEPKQYVYSKVMSWAAFDSAITMARDLGLTAPIKKWKGIQDEIWNDVMTKGFDPQTNSFVQYYGSKNVDASLLRLPILGFIPANDERFIGTMKRIEDELMVDGYLFRRYREDDGLKGDEGSFLMLTFWYIEDLILMKRLKAARAALESIIEKANHLGLYSEEIDEKTGDFLGNFPQALSHLGIIRVAPKLEEAFLKRVSKINELEHHHHHH”, the “soluble on expression in E. coli” value was “not soluble”. In the case of “MKRLSLREAWPYLKDLQQDPLAVLLEWGRAHPRLFLPLPRFPLALIFDPEGVEGALLAEGTTKATFQYRALSRLTGRGLLTDWGKSWKEARKALKDPFLPKSVRGYREAMEEEAWAFFGEWRGEERDLDHEMLALSLRLLGRALFGKPLSPSLAEHALKALDRIMAQTRSPLALLDLAAEARFRKDRGALYREAEALIVHPPLSHLPRERALSEAVTLLVAGHETVASALTWSFLLLSHRPDWQKRVAESEEAALAAFQEALRLYPPAWILTRRLERPLLLGEDRLPQGTTLVLSPYVTQRLYFPEGEAFQPERFLAERGTPSGRYFPFGLGQRLCLGRDFALLEGPIVLRAFFRRFRLDPLPFPRVLAQVTLRPEGGLPARPREGVRA”, the “soluble on expression in E. coli” value is reported as “soluble”. With “MRVSGSASSQDIISRINSKNINNNDSNEVKRIKDALCIESKERILYPQNLSRDNLKQMARYVNNTYVHYSGNCVLLSACLHYNIHHRQDILSSKNTASPTVGLDSAIVDKIIFGHELNQSYCLNSIDEVEKEILNRYDIKRESSFIISAENYIAPIIGECRHDFNAVVICEYDKKPYVQFIDSWKTSNILPSLQEIKKHFSSSGEFYVRAYDEKHD” the “soluble on expression in E. coli” value was “not soluble”. For “MAADGTYDELERGEKSKLRDDVVDIQKKPFSILFMGVEDYSTNGEHGRTDSLIVVTLDPKKKSMKMLSIPRDTRVHLASDTTGTKTKINAAYAKGGKDETIETVEDFLGIPIDYYATVDFDGFKDVIDEIGGIDVDVPFDFSEKSDVSKSKRIYFKKGNMHLNGEEALAYARMRKQDKRGDFGRNDRQKQILKAALDQISKPQNLAKIDTIAQKASKNIQTNFRITQALALQQIYSGFAGDDIKTLNITGQDLTIANVYYFEPDQQNLENVQNELTHHLYPLEHHHHHH”, the “soluble on expression in E. coli” value was “soluble”. In the case of “MSLARVSGDAPAVSWETLDLHTAQPFGIARWTHSVYPRTFVTLTLDGRRGRGEAAPNAFYGETRGTVEAVLPLLAPALSDPWDWDGLHAALGARMPHDHPSVKCALEMAAVEWCAQAAGVPVWQLLGLSPTVLPESSYTVSLAPLPDMRRQAREAVGRGHRVLKVKLGTDQDEAILEALREEVPEVALRVDANAAWTRAQAKRMLGVLDAARVEFVEQPLAAGDLEGHAMLRGVSPVPIVADESLHHVGDVLALARAFDGVNLKLAKLGGPLQALRALRLARAHGMQVMMGCMIESSLGIAAAAHLAGLCDWADLDGALLLADDPYTGLDWTAGQLARPGGTGWGVTRRSEGHHHHHH”, the “soluble on expression in E. coli” value is reported as “soluble”. In the case of “MILINKRAEKQDYQTILAIWEKSVIVTHDFLTAEDRQFYKEQIPLFLDNVELFLWFAGEEVIGFSGTSERELDMLFLDPVATGNGYGSQILGWLIENKRINLVDVNEQNENATRFYLKHGFVVSSRSDLDGFGKPYPILQLQLK”, the “soluble on expression in E. coli” value is reported as “not soluble”. With “MGSDKIHHHHHHMRRTDKKKTFGQQSSKVTQLADTLSQAISMKKFREGDSLPSINQLSAEYGVSRDTVFKAFLDLRERGLIDSTPGKGYYVTSQVTNVLLLLDQYTPFKEALYNSFVKHLPINYKVDLLFHQYNERLFNTIIRESVGKYNKYIVMNFDNEKFSMVLNKIHPTKLLLLDFGKFEKEKYSYICQDFDEAFYQALLMLKEKLRHYPQLVLLFSKNLKHPQSSKEYFTRFCEEQGFLCEIQEDIENLTVRKGVVYIAIKQQDVVKVVKQGRLEGLKCGKDFGLLAYNDIPSYEVIDEGITSLSIDWEMMGNEAANFVLNNVPIQKYLPTEVRLRKSL” the “soluble on expression in E. coli” value was “not soluble”. For “MGRHGKRGLNMTKQNSNTDRRSLQDCGVFSSAEYHSVGLSGGKDSSALLLLMLEKGMPIDSVIFADTGMDFPEMAAHIAKLDALLYRERGIHITTLRHPHGFEWLMFDEPKRKPSCLKNRARLGVPPYGNGWPGIKVRWCTGQLKTHLITKEVNRLKKEKNALHYIGIAADEAKRCKDAPNHRYPLVEWGVTEAQALQICYDRGFDFGGLYKIYHRASCWCCPLQRIGELRKLRQHHPELWARLWDMDNRARAQFGAGPLGQFKERWSIEQLDARFSREEKEERA”, the “soluble on expression in E. coli” value was “not soluble”. For “MGSDKIHHHHHHMSEIKNRIDFVYIFDVQDGNPNGDPDAGNLPRVDAETGMGLVTDVCLKRKVRNYVQVAKGLEDGYDIFIKEKAVLNTLIDKAHDDSEVKNAKDKTDAARRFMCKNYFDVRTFGAVMSTGKNAGQVRGPIQFTFARSVDPIAAAEHSITRMAVATDAEAKKQSGDNRTMGRKATVPYGLYICHGFISANLAQQTGFSEEDLALFWEALKNMFDMDRSAARGLMSAQKLIVFKHDSVLGNAPANKLFDLVKVEKVCDGAPRSFGDYHVTIDKEHVPSNVTVEELI”, the “soluble on expression in E. coli” value was “not soluble”. In the case of “MEAQNRIEDHGIIGDMRSAALIADTGSIDFCCWPDFDSPSIFTALLDTPDAGIFQLAPDLPDARRLQIYLPDTNVLQTRWIAEQAVVEVTDLMPIGEDQDDLPRIVRRVQVRFGEATIRMRCRVRMDYSRALEHHHHHH”, the “soluble on expression in E. coli” value is reported as “not soluble”. With “MPPSPLDDRVVVALSRPVRPQDLNLCLDSSYLGSANPGSNSHPPVIATTVVSLKAANLTYMPSSSGSARSLNCGCSSASCCTVATYDKDNQAQTQAIAAGTTTTAIGTSTTCPANQMVNNNENTGSLSPSSGVGSPVSGTPKQLASIKIIYPNDLAKKMTKCSKSHLPSQGPVIIDCRPFMEYNKSHIQGAVHINCADKISRRRLQQGKITVLDLISCREGKDSFKRIFSKEIIVYDENTNEPSRVMPSQPLHIVLESLKREGKEPLVLKGGLSSFKQNHENLCDNSLQLQECREVGGGASAASSLLPQPIPTTPDIENAELTPILPFLFLGNEQDAQDLDTMQRLNIGYVINVTTHLPLYHYEKGLFNYKRLPATDSNKQNLRQYFEEAFEFIEEAHQCGKGLLIHCQAGVSRSATIVIAYLMKHTRMTMTDAYKFVKGKRPIISPNLNFMGQLLEFEEDLNNGVTPRILTPKLMGVETVV” the “soluble on expression in E. coli” value was “soluble”. For “RPNKGAQQEDERIIQAFDKAIQYMSKRKIGALITIERNTGLDEYIETGIDLDADITGELLINIFIPNTPLHDGAVIIKNEKIAVASAYLPLSESNLIPKEFGTRHRAAVGISEVSDAITIVVSEETGDVSLTLNNELIPGL”, the “soluble on expression in E. coli” value was “not soluble”. For “MTKPLILASQSPRRKELLDLLQLPYSIIVSEVEEKLNRNFSPEENVQWLAKQKAKAVADLHPHAIVIGADTMVCLDGECLGKPQDQEEAASMLRRLSGRSHSVITAVSIQAENHSETFYDKTEVAFWSLSEEEIWTYIETKEPMDKAGAYGIQGRGALFVKKIDGDYYSVMGLPISKTMRALRHFDIRA”, the “soluble on expression in E. coli” value was “soluble”. With “MGSDKIHHHHHHMDKGKSVKSTEKSVGMPPKTPKTDNNAHVDNEFLILQVNDAVFPIGSYTHSFGLETYIQQKKVTNKESALEYLKANLSSQFLYTEMLSLKLTYESALQQDLKKILGVEEVIMLSTSPMELRLANQKLGNRFIKTLQAMNELDMGEFFNAYAQKTKDPTHATSYGVFAASLGIELKKALRHYLYAQTSNMVINCVKSVPLSQNDGQKILLSLQSPFNQLIEKTLELDESHLCTASVQNDIKAMQHESLYSRLYMS” the “soluble on expression in E. coli” value was “not soluble”.
